Results reported in patent US20060018918A1.

Legend:
Test in all cases: ELISA on plates coated with the antigen; control serum
native α-lactalbumin = target: native α-lactalbumin
[1] = target: α-lactalbumin stabilized denatured isomer "a"
[2] = target: α-lactalbumin stabilized denatured isomer "c"
[3] = target: α-lactalbumin stabilized denatured isomer "d"

O.D. (native α-lactalbumin): 0.06 O.D.
O.D. [1]: 0.06 O.D.
O.D. [2]: 0.056 O.D.
O.D. [3]: 0.05 O.D.
Substance: normal mouse serum (control) (polyclonal serum or antibody)
